Data: paper PMC7060329, “Pathway-specific enzymes from bamboo and crop leaves biosynthesize anti-nociceptive C-glycosylated flavones” (Communications Biology, 2020)

T1: SbF2H (CYP93G3; SbCYP93G3) (Sorghum bicolor, UniProt C5X6I4)
T1 construct: gene SORBI_3002G000400; N-terminal transmembrane region cut (borders not in text) and replaced with 2B1dH tag; codon-optimized; in E. coli with AtCPR2
T1 sequence (C5X6I4 42-541 limits assumed): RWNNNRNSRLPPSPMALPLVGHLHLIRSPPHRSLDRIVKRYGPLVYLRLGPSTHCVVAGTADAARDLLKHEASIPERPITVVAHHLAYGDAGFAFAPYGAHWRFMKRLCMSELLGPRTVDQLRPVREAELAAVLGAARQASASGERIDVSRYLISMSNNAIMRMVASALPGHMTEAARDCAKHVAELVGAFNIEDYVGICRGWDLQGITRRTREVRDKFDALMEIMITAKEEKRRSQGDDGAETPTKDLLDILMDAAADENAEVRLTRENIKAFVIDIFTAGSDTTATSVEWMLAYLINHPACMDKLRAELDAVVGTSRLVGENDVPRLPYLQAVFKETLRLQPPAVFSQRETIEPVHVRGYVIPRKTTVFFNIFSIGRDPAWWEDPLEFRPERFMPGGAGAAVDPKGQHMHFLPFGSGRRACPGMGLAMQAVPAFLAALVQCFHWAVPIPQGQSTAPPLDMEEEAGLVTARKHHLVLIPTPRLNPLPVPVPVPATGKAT

B1: PhUGT708A43 (PhCGT1) (Phyllostachys edulis) (protein)
chain: MPTSGGRTGDRPHVILLPSAGMGHLVPFSRLAVALSSGHGCDVSVVAVLPTVSAAESRHLQGLLDASPAVRRLDLHLAPFDESEFPGADPFFLRFEAMRRSAPLLGPLLADTGASALVTDIALASVVIPVAKEIHLPCYVLFTASAAMLSFCAYFPTYLDTNAGRVVGDVDIPGVYRIPKASIPQALHDPNHLFTRQFVANGQDLAKADGVLVNTFDALELEAVTALRQGSVAAGFPPVFSVGPLVTVNLPAGEAAKESGNDYMYWLDAQPAQSVVYVSFGSRKAISRDQVRELAIGLEASGQPFLWVVKSTVVDRDDSAELSELLGEGFLERVQGQGFVTKAWVEQEEVLKHESIGLFISHCGWNSVTEAAASGVPVLAWPRFGDQRVNAGVVARGGLGVWVERWSWEGEEDVVSGEEIAEKVKAVMADETVRKKAASVGEAAVKEFADGGTSYRSLTEFVRRCRDLAVLD
notes: full-length ORF, pET28a (pCZ86), recombinant from E. coli, purified

Tests used:
[1] = molecular target: T1, SbF2H (CYP93G3; SbCYP93G3); assay: E. coli whole-cell conversion, LC-MS of downstream vitexin/isovitexin; type: cell-based; conditions: coexpressed AtCPR2 and PhUGT708A43; naringenin made in vivo, 22 °C
[2] = substrate: O=C1CC(O)(c2ccc(O)cc2)Oc2cc(O)cc(O)c21; assay: HPLC of C-glucoside product, Michaelis-Menten fit; type: biochemical, Phyllostachys edulis; conditions: 400 μM UDP-glucose, 100 mM NaCl, 20 mM Tris-HCl pH 8.0, 37 °C, 20 min
[3] = substrate: O=C(CCc1ccc(O)cc1)c1c(O)cc(O)cc1O; assay: HPLC of C-glucoside product, Michaelis-Menten fit; type: biochemical, Phyllostachys edulis; conditions: 400 μM UDP-glucose, 100 mM NaCl, 20 mM Tris-HCl pH 8.0, 37 °C, 20 min

| Molecule | E. coli whole-cell conversion, LC-MS of downstream vitexin/isovitexin [1] | Km [2] [µM] | Km [3] [µM] |
| --- | --- | --- | --- |
| O=C1C[C@@H](c2ccc(O)cc2)Oc2cc(O)cc(O)c21 [Nar, naringenin] | truncated ZmF2H/AtCPR2 (sCZ2) and truncated SbF2H/AtCPR2 (sCZ29) |  |  |
| B1 |  | 1.75 ± 0.66 | 15.83 ± 6.98 |
